Data set [1] can be described thus: Study No. 140123: feed consumption of UACC-257 inoculated mice. Type of data set: in vivo, Balb/c^nu/nu mice. As to the method: (§1) Treatment of cancer-induced weight loss with anti-GDF-15 antibodies. In the underlying animal study No. 140123, 10 Balb/c^nu/nu mice per treatment group were subcutaneously inoculated with 10×10^6 UACC-257 cells per animal in a 1:1 volume ratio with matrigel (100 μl cells+100 μl matrigel). The animals were treated on the same day with the respective antibodies, as indicated below:
In addition to evaluating the mean body weight of the mice, the feed consumption of the mice was evaluated by pairwise comparisons of the study groups (Table 1).

The next data set addresses T1, recombinant human GDF-15 (Homo sapiens, UniProt Q99988).
T1 sequence (Q99988 with tags, fused parts or gaps): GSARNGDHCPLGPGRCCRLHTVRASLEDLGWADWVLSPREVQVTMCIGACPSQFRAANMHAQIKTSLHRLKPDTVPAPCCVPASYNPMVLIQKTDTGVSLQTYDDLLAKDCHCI
The experiment in a line: Mass spectrometric epitope excision. The data set is classed as binding. Particulars: trypsin 2 h at 37° C., MS/MS identification. As to the method:
The epitope of recombinant human GDF-15 which binds to the antibody B1-23 was identified by means of the epitope excision method and epitope extraction method (Suckau et al. Proc Nati Acad Sci USA. 1990 December; 87(24): 9848-9852; R. Stefanescu et al., Eur. J. Mass Spectrom. 13, 69-75 (2007)).
For preparation of the antibody column, the antibody B1-23 was added to NHS-activated 6-aminohexanoic acid coupled sepharose. The sepharose-coupled antibody B1-23 was then loaded into a 0.8 ml microcolumn and washed with blocking and washing buffers.
The immobilized antibody B1-23 on the affinity column was then incubated with recombinant GDF-15 for 2 h. The formed immune complex on the affinity column was then incubated with trypsin for 2 h at 37° C. […] The immobilized antibody itself is proteolytically stable. The resulting peptides of the digested GDF-15 protein, which were shielded by the antibody and thus protected from proteolytic cleavage, were eluted under acidic conditions (TFA, pH2), collected and identified by mass spectrometry.

For data set [2], the target named is T2, human GDF-15 precursor on human cells (Homo sapiens, UniProt Q99988).
T2 construct: endogenous in cells
T2 sequence (Q99988 30-308 limits assumed): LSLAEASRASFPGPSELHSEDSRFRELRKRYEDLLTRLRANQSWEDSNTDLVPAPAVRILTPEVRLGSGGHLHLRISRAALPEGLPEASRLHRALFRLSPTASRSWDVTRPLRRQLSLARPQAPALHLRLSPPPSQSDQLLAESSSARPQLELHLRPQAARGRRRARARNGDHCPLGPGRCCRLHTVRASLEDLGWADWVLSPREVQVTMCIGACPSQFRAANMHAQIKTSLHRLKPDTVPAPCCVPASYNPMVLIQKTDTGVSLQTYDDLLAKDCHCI
The experiment in a line: Staining experiments on human cells. The data set is classed as cell-based.

The next data set concerns the target human Interleukin-5 (Homo sapiens, UniProt P05113). The experiment in a line: Surface plasmon resonance control flow cell with human Interleukin-5. Type of data set: binding. Particulars: SPR, same coupling density.
Data set [3] in a line: Study No. 140123: body weight of UACC-257 inoculated mice (cancer-induced weight loss). Type of data set: in vivo, Balb/c^nu/nu mice. The note with it: 38 days. On the procedure: FIG. 5: Treatment of cancer cachexia with anti-GDF-15 antibodies. […] The changes of the body weight are depicted in percent as compared to the starting body weight on day 0, for a period of 38 days.
as §1
The study was carried out in a double-blinded manner for the treatment with the antibodies and for the treatment with PBS.

The test system of data set [4] is melanoma cell line UACC-257. Description: UACC-257 melanoma xenograft tumor growth in nude mice. The data set is classed as in vivo, Balb/c^nu/nu nude mice. Particulars: 25 mg/kg i.p. twice a week; 48 days; p<0.05. As to the method: FIG. 4: An anti-tumor effect of murine B1-23 in vivo. Balb/c^nu/nu nude mice were used in a xenograft setting with the melanoma cell line UACC-257. […] Significance was defined as p<0.05 as assessed by Wilcoxon's log-rank test.
To assess an anti-tumor effect of B1-23 in viva, Balb/c^nu/nu nude mice were used in a xenograft setting with the melanoma cell line UACC-257. The mice were treated either with the antibody B1-23 or with PBS. Each treatment cohort contained 10 Balb/c^nu/nu nude mice.
Prior to injection, the UACC-257 melanoma cells were grown in complete medium, excluding any contamination. […] Cells were then washed with PBS and counted. 1×10^7 viable cells were suspended in PBS.
The first injection/treatment was administered in 6 week old Balb/c^nu/nu nude mice. The inoculation area of the mice was cleaned with ethanol. The UACC 257 cells were mixed and drawn into a syringe without a needle, in order to avoid negative pressure on the tumor cells. […]
The intraperitoneal (i.p.) injection of either B1-23 (25 mg/kg body weight) or the same volume of PBS started immediately after the tumor cell inoculation (defined as day 1) and was administered twice a week. […] The tumor diameters were measured with a caliper and the tumor volume in mm^3 was calculated by the formula: Volume=(width)^2×length/2

Data set [5] is described as follows: Gel electrophoresis and coomassie staining of antibodies used in study No. 140123. The data set is classed as physicochemical. On the procedure:
FIG. 6: Coomassie stain of antibodies used in the study No. 140123.
The quality of the humanized anti-GDF-15 antibody B1-23-H1L5 used in the study was tested by using gel electrophoresis and coomassie staining of the antibodies (see FIG. 6).

Sequence of human Interleukin-5 (P05113 20-134): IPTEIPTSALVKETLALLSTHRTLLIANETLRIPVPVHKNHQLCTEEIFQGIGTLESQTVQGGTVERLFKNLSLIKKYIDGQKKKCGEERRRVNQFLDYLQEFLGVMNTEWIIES

B1: mAb-B1-23: murine IgG2a (kappa) monoclonal anti-human GDF-15 antibody produced by hybridoma cell line B1-23, DSM ACC3142 (antibody, V domains shown)
VH: QVKLQQSGPGILQSSQTLSLTCSFSGFSLSTSGMGVSWIRQPSGKGLEWLAHIYWDDDKRYNPTLKSRLTISKDPSRNQVFLKITSVDTADTATYYCARSSYGAMDYWGQGTSVTVSS
VL: DIVLTQSPKFMSTSVGDRVSVTCKASQNVGTNVAWFLQKPGQSPKALIYSASYRYSGVPDRFTGSGSGTDFTLTISNVQSEDLAEYFCQQYNNFPYTFGGGTKLEIKRTVA
As to B1, the “Feed consumption per mouse and day” value in data set [1] (average over day 17-34 intervals, with standard deviation) is 3.6 ± 0.2 g. The “feed consumption compared with groups which did not receive the anti-GDF-15 antibodies” value in data set [1] (mouse, in vivo) was “significantly higher”. Also, the “positions of GDF-15 peptides forming the immune complex (epitope)” value with recombinant human GDF-15 is 40-55 ([…]) and 94-114 ([…]). In addition, in data set [2], the “binding to the human GDF-15 precursor on human cells” value is listed as “capable of binding”. Besides, in the data set with human Interleukin-5, the “binding to human interleukin-5” value is “no binding”. For the same molecule, the “body weight change compared to day 0” value in data set [3] is on record as “increase in body weight”. Further, the “tumor size compared to the PBS control group” value in data set [4] is listed as “significantly decreased”. Also, the “band appearance / aggregation in coomassie gel” value in data set [5] was “less sharp and at a higher molecular weight”.

These data come from patent US11760795B2, “Monoclonal antibodies to growth and differentiation factor 15 (GDF-15), and uses thereof for treating cancer cachexia and cancer” (JULIUS-MAXIMILIANS-UNIVERSITÄT WÜRZBURG, priority 2014, dated 2023).
